Results as given in publication PMC3082007, “The microRNA cluster miR-106b~25 regulates adult neural stem/progenitor cell proliferation and neuronal differentiation”.

Molecular target: FoxO3-GST (human, UniProt O43524 1-673)
Test: EMSA; 5 nM probe; 50 ng/ul protein; Binding Buffer as printed: 200 mM Tris-HCl pH 7.5, 200 mM KCl, 200 mM MgCl2, 2% NP-40, 10% glycerol, 5 mM DTT, 500 ng/ul salmon sperm DNA (possibly a stock concentration); room temperature 20 min; 4% native PAGE at 4 C
Details: protein: recombinant; tags: GST; label: 32P; blunt

FoxO3-GST, sequence (O43524 whole entry): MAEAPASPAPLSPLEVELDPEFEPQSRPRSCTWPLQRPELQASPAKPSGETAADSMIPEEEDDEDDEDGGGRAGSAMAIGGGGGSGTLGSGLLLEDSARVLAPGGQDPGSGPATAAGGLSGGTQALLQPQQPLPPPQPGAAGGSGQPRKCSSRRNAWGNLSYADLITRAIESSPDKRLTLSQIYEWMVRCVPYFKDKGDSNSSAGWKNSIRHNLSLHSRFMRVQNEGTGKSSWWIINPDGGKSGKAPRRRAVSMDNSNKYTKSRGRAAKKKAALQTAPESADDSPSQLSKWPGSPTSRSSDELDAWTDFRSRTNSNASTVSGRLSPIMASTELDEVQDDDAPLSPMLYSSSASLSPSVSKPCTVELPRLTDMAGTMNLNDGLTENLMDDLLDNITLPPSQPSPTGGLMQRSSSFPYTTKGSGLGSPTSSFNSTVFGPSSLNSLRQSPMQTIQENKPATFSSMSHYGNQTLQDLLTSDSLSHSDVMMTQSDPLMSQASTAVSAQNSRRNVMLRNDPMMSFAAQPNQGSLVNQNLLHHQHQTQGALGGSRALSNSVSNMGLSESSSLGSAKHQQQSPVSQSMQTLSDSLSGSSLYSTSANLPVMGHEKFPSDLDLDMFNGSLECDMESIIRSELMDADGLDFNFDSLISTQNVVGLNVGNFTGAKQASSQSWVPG

B1: FHRE WT (miR-106b~25/Mcm7 intron 1) (dsDNA)
DNA 1: GGCCCATGTGCTTCTTTGTTTACTAAGAGCGGAAGCAG
DNA 2: CTGCTTCCGCTCTTAGTAAACAAAGAAGCACATGGGCC
binding result: binds
